Data from article PMC9156741, “Blocking phospholamban with VHH intrabodies enhances contractility and relaxation in heart failure” (Nature Communications, 2022).

Assays:
[1] = target: T1, pS16 PLN peptide VI (biotin-HPDP-Cys-EKVQYLTRSAIRRApSTIEMPQQARQ-NH2) (phosphoserine at Ser 16 (pS in the printed sequence); biotin-HPDP on the N-terminal Cys (cysteine persulphide); C-terminal amidation); experiment: SPR; pS16 phosphorylated
T1 peptide: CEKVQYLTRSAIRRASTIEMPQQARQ

[2] = target: pS16 PLN peptide VI (biotin-HPDP-Cys-…p…-NH2); experiment: SPR; Biacore T200; peptide V or VI immobilised on streptavidin SA chip (50-100 RU); VHH as analyte, single-cycle kinetics with five increasing concentrations; PBS pH 7.4 + 0.05% Tween 20; 1:1 Langmuir model
[3] = target: T2, PLN peptide V (biotin-HPDP-Cys-EKVQYLTRSAIRRASTIEMPQQARQ-NH2) (biotin-HPDP on the N-terminal Cys (cysteine persulphide); C-terminal amidation); experiment: SPR
T2 peptide: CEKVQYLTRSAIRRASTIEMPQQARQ

[4] = target: T2, PLN peptide V …; experiment: SPR
[5] = target: T3, PLN peptide V (biotin-HPDP-Cys-EKVQYLTRSAIRRASTIEMPQQARQ-NH2) (biotin-HPDP on the N-terminal Cys (cysteine persulphide); C-terminal amidation); experiment: SPR; Biacore T200; peptide V or VI immobilised on streptavidin SA chip (50-100 RU); VHH2 as analyte, single-cycle kinetics; PBS pH 7.4 + 0.05% Tween 20; bivalent analyte model; apparent Kd; settings: both partners purified
T3 construct: added N-terminal cysteine residue that carries biotin-HPDP; phospholamban (PLN), stretch of the cytoplasmic regulatory domain; also called non-phosphorylated PLN peptide; source: synthetic peptide (Bachem, Switzerland)
T3 peptide: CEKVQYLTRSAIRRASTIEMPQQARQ

[6] = target: T4, pS16 PLN peptide VI (biotin-HPDP-Cys-EKVQYLTRSAIRRApSTIEMPQQARQ-NH2) (phosphoserine at Ser 16 (pS in the printed sequence); biotin-HPDP on the N-terminal Cys (cysteine persulphide); C-terminal amidation); experiment: as above; settings: both partners purified
T4 construct: added N-terminal cysteine residue that carries biotin-HPDP; phospholamban (PLN), stretch of the cytoplasmic regulatory domain, phosphorylated at Ser 16; also called p16S PLN peptide; source: synthetic peptide (Bachem, Switzerland)
T4 peptide: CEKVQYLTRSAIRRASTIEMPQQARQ

[7] = target: T1, pS16 PLN peptide VI …; experiment: SPR; pS16 phosphorylated; kinetic fit
[8] = target: T3, PLN peptide V …; experiment: SPR; Biacore T200; peptide V or VI immobilised on streptavidin SA chip (50-100 RU); VHH as analyte, single-cycle kinetics with five increasing concentrations; PBS pH 7.4 + 0.05% Tween 20; 1:1 Langmuir model; settings: both partners purified
[9] = target: T4, pS16 PLN peptide VI …; experiment: as above; settings: both partners purified

B1: VHH C6 (VHH)
VHH: EVQLQESGGGLVQAGGSLRLSCAASGFTLYAMGWFRQAPGKEREFVAAITPHGSTTYYADSVKGRFTISRDNAKNTVYLQMNSLKPEDTAVYYCHTYYSGSWGQGTQVTVSS
For B1, the koff [1] was 0.33 s⁻¹ and the Kd [2] was 680 nM.

B2: VHH2 B4B4 (VHH)
chain: EVQLQESGGGLVQAGGSLRLSCAASGFSFYRHAMGWFRQAPGKEREWVAEIDWEGGYTYYADSVKGRFTISRDNAKNTVYLQMNSLKPEDTAVYYCAAGRDLYAYWGQGTQVTVSSGGGSGGGSGGGSEVQLQESGGGLVQAGGSLRLSCAASGFSFYRHAMGWFRQAPGKEREWVAEIDWEGGYTYYADSVKGRFTISRDNAKNTVYLQMNSLKPEDTAVYYCAAGRDLYAYWGQGTQVTVSS
notes: N-terminal VHH B4 domain; (Gly3Ser)3 linker, as named in the methods and encoded by the printed primers; C-terminal VHH B4 domain; Bivalent VHH on one chain; also called bivalent variant of VHH B4; bivalent VHH2 B4B4; source: E. coli HB2151 (pHEN4 vector); expressed and purified according to previously described protocols
B2 was tested, and the koff [3] was 0.00011 s⁻¹, the Kd [4] was 0.1 nM and the koff [1] was 0.0052 s⁻¹. For the same binder, the Kd [5] was 0.15 nM and the Kd [6] was 1 nM.

B3: VHH B4 (VHH)
VHH: EVQLQESGGGLVQAGGSLRLSCAASGFSFYRHAMGWFRQAPGKEREWVAEIDWEGGYTYYADSVKGRFTISRDNAKNTVYLQMNSLKPEDTAVYYCAAGRDLYAYWGQGTQVTVSS
notes: VHH B4, from the synthetic LlamdA phage-display VHH library (llama VHH framework); also called clone B4; source: E. coli HB2151, small-scale cultures induced with IPTG (ELISA); expressed and purified according to previously described protocols (SPR)
In the case of B3, the koff [3] is reported as 0.025 s⁻¹, the koff [1] is reported as 0.18 s⁻¹ and the Kd [7] is reported as 618 nM. It also gave a Kd [8] of 44 nM and a Kd [9] of 682 nM.
